Reference: patent publication US6288042, “Anti-viral guanosine-rich tetrad forming oligonucleotides” (Aronex Pharmaceuticals, Inc.)

Tests used:
SIV integrase = target: T1, SIV integrase (Simian immunodeficiency virus, UniProt P05896 P05896:1156-1448); assay: inhibition; 3'-processing; conditions: G4
T1 sequence: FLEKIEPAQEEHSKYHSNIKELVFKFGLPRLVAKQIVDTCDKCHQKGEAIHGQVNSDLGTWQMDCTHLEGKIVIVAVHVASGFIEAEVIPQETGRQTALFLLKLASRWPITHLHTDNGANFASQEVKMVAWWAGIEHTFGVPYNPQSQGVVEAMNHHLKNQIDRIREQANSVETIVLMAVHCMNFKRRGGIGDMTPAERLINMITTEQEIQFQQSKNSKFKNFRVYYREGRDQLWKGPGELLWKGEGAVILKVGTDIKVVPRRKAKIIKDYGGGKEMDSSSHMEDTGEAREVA

FIV integrase = FIV integrase (Feline immunodeficiency virus, UniProt P16088 P16088:844-1124); assay: inhibition; 3'-processing; conditions: G4
[1] = target: HIV-1 nucleocapsid protein (Human immunodeficiency virus 1, UniProt P04591 P04591:378-432); assay: binds efficiently, data not shown; conditions: G4
[2] = target: T2, HIV-1 integrase wild-type (IN1-288) (Human immunodeficiency virus 1, UniProt P04585 P04585:1148-1435); assay: inhibition; 3'-processing; other column (strand transfer) 0.870; Table B-7 gives >0.50; only modest inhibition of U5 DNA binding at 500 nM (FIG. 25); conditions: G4
[3] = target: T2, HIV-1 integrase wild-type (IN1-288); assay: inhibition; 3'-processing column as printed; strand transfer column 0.110; conditions: G4
[4] = target: T2, HIV-1 integrase wild-type (IN1-288); assay: inhibition; 3'-processing column as printed; strand transfer column 0.090; conditions: G4
[5] = target: T2, HIV-1 integrase wild-type (IN1-288); assay: inhibition; 3'-processing column as printed; strand transfer column 0.059; conditions: G4
[6] = target: T2, HIV-1 integrase wild-type (IN1-288); assay: inhibition; 3'-processing column as printed; strand transfer column 0.485; conditions: G4
[7] = target: FMLV reverse transcriptase (Friend murine leukemia virus, UniProt P26810 P26810:661-1331); assay: inhibition; reverse transcriptase activity in culture medium; conditions: protein: virion; tags: culture medium of chronically infected NIH3T3 cells
[8] = target: T2, HIV-1 integrase wild-type (IN1-288); assay: inhibition; 3'-processing column as printed; strand transfer column 0.159; conditions: G4
HIV-1 gp120 = HIV-1 gp120 (Human immunodeficiency virus 1, UniProt P04578 P04578:33-511); assay: competition; PT oligonucleotide inhibits V3 loop Mab binding to immobilized gp120; conditions: tags: immobilized
[9] = target: T2, HIV-1 integrase wild-type (IN1-288); assay: inhibition; 3'-processing column as printed; strand transfer column 0.129; conditions: G4

B1: T30177 (AR177) (structured_DNA)
DNA: GTGGTGGGTGGGTGGGT
modifications: PS at first and last linkage (pPT)
Which results are given for B1?
IC50 (SIV integrase): 420 nM; IC50 (FIV integrase): 175 nM; binding result [1]: binds

B2: T30659 thrombin binding aptamer pPT (structured_DNA)
DNA: GGTTGGTGTGGTTGG
modifications: PS at first and last linkage (Table B-7; Table C-1 says PT)
Which IC50 [2] does the source give for B2 here?
Its IC50 is 750 nM.

B3: T30075 (structured_DNA)
DNA: GTGGTGGGTGGGTGGGT
modifications: 3'-cholesterol via triglycyl linker
With B3 as the binder, how does the IC50 [3] read?
The IC50 was 95 nM.

B4: T30570 (structured_DNA)
DNA: GTGGTGGGTGGGTGGGT
modifications: 5-bromo dU at 13; PS at first and last linkage [n positions 13 = modified dU]
How did the IC50 [4] turn out when B4 was run?
Its IC50 is 70 nM.

B5: T30720 (structured_DNA)
DNA: GGGGTGGTGGGTGGGT
modifications: C-5 propynyl dU at capital T; PS at first and last linkage
With B5 as the binder, how does the IC50 [5] read?
Its IC50 is 62 nM.

B6: T30675 (structured_DNA)
DNA: GTGGTGGGTGTGGTTGGT
modifications: PS at first and last linkage
With B6 as the binder, how does the IC50 [6] read?
Its IC50 is 500 nM.

B7: I100-12 (ssDNA)
DNA: GTTGGGGGTTGTTGGTGGGGTGGTGG
modifications: PS all linkages
How did the IC50 [7] turn out when B7 was run?
Its IC50 is less than 500 nM.

B8: T30679 (structured_DNA)
DNA: GTGGTTGGTGGGTGGGT
modifications: PS at first and last linkage
B8 was tested. Which IC50 [8] did it give?
Its IC50 is 156 nM.

B9: 1174 (ssDNA)
DNA: GGGTGGGTGGGTGGGTGG
modifications: PS all linkages
Does B9 bind (HIV-1 gp120)?
Result: binds

B10: I100-21 (ssDNA)
DNA: GTGGTGGGTGGGTGGGTGGTGGGTGGTGGTTGTGGGTGGGTGGTG
modifications: PS all linkages
Does B10 bind (HIV-1 gp120)?
Result: binds

B11: T30722 (structured_DNA)
DNA: GTGGGTGGTGGGTGGGT
modifications: C-5 propynyl dU at capital T; PS at first and last linkage
With B11 as the binder, how does the IC50 [9] read?
Its IC50 is 134 nM.
